Among the data in patent US20210380707A1 are OD 450 values, retold here.

Sequences and labels used below:
B1: 16D7C8 (antibody, IgG3, V domains shown)
VH: QVQLQQSGPELVKPGASVRISCKASGYTFTSFYIHWVKQRPGQGLEWIGWISPINININYNEKFKGKATLTADKSSSTVYMQLSSLTSEDSAVYFCEGTSENFDVWGAGTTVTVSS
VL: DVLMTQIPLSLPVSLGDQASISCRSTQNIVHSNGNTYLEWYLQKPGQSPKLLIYKVSNRFSGVPDRFRGSGSGTEFTLKITRVEADDLGVYYCFQGSHVPFTFGAGTKLELK
B2: 3H11D12E7 (antibody, V domains shown)
VH: QIQLVQSGPELKKPGETVKISCKASGYTFTDYSMHWVKQAPGKGLKWMGWINTETGEPTYADDFKGRFAFSLETSASTAYLQINNLKNDDTATYFCARSFYRYDWYFDVWGAGTTVTVSS
VL: QIVLTQSPAIMSASPGEKVTITCSASSSVSFMHWFQQKPGTSPKLWIYSTSNLASGVPARFSGSGSGTSYSLTISRMEAEDAATYYCQQRTSFPPTFGGGTNLEIK
B3: 18F8A8 (antibody, IgG1, V domains shown)
VH: QVTLKESGPGILQPSQTLSLTCSFSGFSLSTSNMGVAWIRQPLGKGLEWLLYILWNDTKYYNPALKSRLSISKDTYNNQVFLKIVNVDTADTATYYCARIRRDYALDYWGQGTSVTVSS
VL: DIVMSQSPSSLAVSVGEKVTMNCKSSQSLLYSNNQKNYLAWYQQKPGQSPKLLIYWASTRESGVPDRFTGSGSGTDFTLTISSVKAEDLAVYYCQQYYIYPLAFGGGTKLEIK
B4: 19H7E4 (antibody, IgG1, V domains shown)
VH: QVTLKESGPGILQPSQTLSLTCSFSGFSLSTSNVGVGWIRQPSGKGLEWLLHILWNDGKYYNPALKSRLTISKDTSTNQVFLKIADVDTADSATYYCARLRRDYGMDYWGQGTSVTVSS
VL: B3 VL with N22S, N33Y, I99T, L102Y
B5: 4E6G9 (antibody, V domains shown)
VH: QIQLVQSGPELKKAGETVKISCKASGYTFAAYSMHWVKQAPGKGLKWMGWINTETGEPTYADDFKGRFAFSLETSASTAYLQINNLKNEDTATYFCTRDDYDGGRFSYWYFAVWGAGTTVTVSS
VL: DIQMTQSPSSLSASLGGKVTITCKASQDINKYIAWYQHRPGKGPRLLIRYTSTLQPGIPSRFSGSGSGRDYSFSINNLEPEDIATYYCLQYDNLLTFGGGTKLEIK
B6: 11E12E8 (antibody, IgG1, V domains shown)
VH: DVQLVESGGGLVQPGGSRKLSCAASGFTFSRFGMNWVRQAPEKGLEWVAYISSGSGDIYYADTVKGRFTISRDNPKNTLFLQMTSLRSEDTAMYYCAVTWFAYWGQGTLVTVSA
VL: QAVVTQEPALTTSPGETVTLTCRSSTGAVTTSNYANWVQEKPDHLFTGLIGGTNNRAPGVPARFSGSLIGDKAALTITGAQTEDEAIYFCVLWYSNHFIFGSGTKVTVL

Residue numbers refer to the chain shown, from its start.

The target of the first assay is recombinant human CD70 tagged with mouse IgG2a Fc (AcroBiosystems Cat#CDL-H525a) (human; mouse) (UniProt P32970). Put plainly: indirect ELISA, hybridoma supernatant, coated antigen A at 1 µg/ml.
recombinant human CD70 tagged with mouse IgG2a Fc (AcroBiosystems Cat#CDL-H525a) (human; mouse), sequence (P32970 39-193): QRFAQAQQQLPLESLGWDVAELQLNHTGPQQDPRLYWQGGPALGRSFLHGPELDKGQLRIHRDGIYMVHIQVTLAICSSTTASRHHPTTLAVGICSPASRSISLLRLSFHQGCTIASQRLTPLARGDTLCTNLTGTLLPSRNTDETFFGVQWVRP
Consider B1, for which the OD 450 worked out at 2.12 OD 450.
Same read-out and setting: the figure for B2 is 1.87 OD 450.
Regarding B3, the OD 450 came out at 1.97 OD 450.
The same measure, in the same setting: for B4 the value was 1.85 OD 450; for B5, 2.51 OD 450; for B6, 1.01 OD 450.

In the next assay the target is Mouse IgG2a protein (AcroBiosystems Cat# IGA-M5207) (mouse) [IgG part: P01863]. Put plainly: indirect ELISA, hybridoma supernatant, coated antigen B at 1 µg/ml. Background: In an ELISA, binding on a coated surface is turned into a signal by an enzyme label.
Mouse IgG2a protein (AcroBiosystems Cat# IGA-M5207) (mouse) [IgG part: P01863], sequence (P01863 98-330): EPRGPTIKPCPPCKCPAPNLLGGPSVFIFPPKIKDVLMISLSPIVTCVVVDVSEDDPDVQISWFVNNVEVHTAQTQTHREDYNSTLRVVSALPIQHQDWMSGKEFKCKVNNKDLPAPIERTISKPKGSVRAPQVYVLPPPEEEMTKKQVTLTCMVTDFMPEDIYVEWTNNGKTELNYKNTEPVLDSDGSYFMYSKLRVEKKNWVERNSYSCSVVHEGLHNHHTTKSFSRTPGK
The molecule B1 registered an OD 450 of 0.154 OD 450.
For B2, the OD 450 came to 0.115 OD 450.
The molecule B3 registered an OD 450 of 0.146 OD 450.
Turning to B4, the OD 450 worked out at 0.134 OD 450.
On the same count and under the same terms, the figure for B5 is 0.121 OD 450; for B6 it is 0.107 OD 450.
